Data published in US20260022175A1 (Chugai, published 2026).
Read-outs that look alike come from different tables or passages of the source. Values belong to the binder of their own block, whether it stands above or below them.

Legend:
[1] = target: T1, human FcγRIIb extracellular domain with C-terminal His-tag (human, UniProt P31994 43-217); test: SPR; binding amount divided by that of 04H1389-G1m/04L1305-k0MT
T1 construct: extracellular domain; also called hFcγR IIb
T1 sequence (looked up): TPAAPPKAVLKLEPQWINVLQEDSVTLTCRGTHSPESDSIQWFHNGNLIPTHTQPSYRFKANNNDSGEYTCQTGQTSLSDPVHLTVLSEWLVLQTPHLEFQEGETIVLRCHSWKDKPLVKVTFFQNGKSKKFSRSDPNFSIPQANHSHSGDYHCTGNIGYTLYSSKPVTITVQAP

human FcRn [2] = target: T2, human FcRn (human, UniProt P55899 24-290; P61769 21-119); test: SPR Biacore T200, captured Ab, pH 6.0, steady state
T2 construct: Prepared by the method of WO 2010/107110; also called hFcRn

[3] = target: T3, human FcγRIIa H allotype extracellular domain with C-terminal His-tag (human, UniProt P12318 34-217); test: SPR Biacore T200, captured Ab, pH 7.4
T3 construct: extracellular domain; also called hFcγR IIa H
T3 sequence (looked up): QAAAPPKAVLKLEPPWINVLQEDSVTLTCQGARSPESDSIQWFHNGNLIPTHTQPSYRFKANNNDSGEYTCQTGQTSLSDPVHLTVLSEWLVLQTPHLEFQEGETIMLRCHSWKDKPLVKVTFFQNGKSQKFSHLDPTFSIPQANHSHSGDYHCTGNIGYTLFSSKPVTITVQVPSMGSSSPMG

[4] = target: T4, human FcγRIa extracellular domain with C-terminal His-tag (human, UniProt P12314 16-292); test: SPR Biacore T200, captured Ab, pH 7.4
T4 construct: extracellular domain; also called hFcγR Ia; hFcγRIa

[5] = target: T5, human FcγRIIa R allotype extracellular domain with C-terminal His-tag (human, UniProt P12318 34-217); test: SPR Biacore T200, captured Ab, pH 7.4
T5 construct: extracellular domain; also called hFcγR IIa R
T5 sequence (looked up): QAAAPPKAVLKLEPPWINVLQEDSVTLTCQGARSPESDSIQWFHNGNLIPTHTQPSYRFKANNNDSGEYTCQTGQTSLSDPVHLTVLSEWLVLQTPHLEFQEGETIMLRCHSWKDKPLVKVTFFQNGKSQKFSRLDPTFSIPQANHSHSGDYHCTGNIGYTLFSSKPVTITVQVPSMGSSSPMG

[6] = target: T6, human FcγRIIIa V allotype extracellular domain with C-terminal His-tag (human, UniProt P08637 17-208); test: SPR Biacore T200, captured Ab, pH 7.4
T6 construct: extracellular domain; also called hFcγR IIIa V

[7] = target: T7, human FcγRIIIa F allotype extracellular domain with C-terminal His-tag (human, UniProt P08637 17-208); test: SPR Biacore T200, captured Ab, pH 7.4
T7 construct: extracellular domain; also called hFcγR IIIa F

human FcRn [8] = target: T2, human FcRn; test: SPR; KD of 04H1389-G1m/04L1305-k0MT divided by KD of variant
[9] = target: T3, human FcγRIIa H allotype extracellular …; test: as above
[10] = target: T4, human FcγRIa extracellular domain with …; test: as above
[11] = target: T5, human FcγRIIa R allotype extracellular …; test: as above
[12] = target: T6, human FcγRIIIa V allotype extracellular …; test: as above
[13] = target: T7, human FcγRIIIa F allotype extracellular …; test: as above
[14] = target: T1, human FcγRIIb extracellular domain with …; test: SPR; FcγRIIb bound amount per unit captured Ab
human FcRn [15] = target: T2, human FcRn; test: SPR; KD of 04H1656-G1m/04L1610-lam1 divided by KD of variant
[16] = target: T3, human FcγRIIa H allotype extracellular …; test: as above
[17] = target: T4, human FcγRIa extracellular domain with …; test: as above
[18] = target: T5, human FcγRIIa R allotype extracellular …; test: as above
[19] = target: T6, human FcγRIIIa V allotype extracellular …; test: as above
[20] = target: T7, human FcγRIIIa F allotype extracellular …; test: as above
[21] = target: T3, human FcγRIIa H allotype extracellular …; test: SPR Biacore T200, captured Ab, pH 7.4; remark: listed apart in the source
Description: (§1) The interaction between the generated antibodies and human FcγRs was analyzed by the following method using Biacore T200. 50 mM Na-Phosphate, 150 mM NaCl, 0.05% Tween20 (pH 7.4) was used as the running buffer, and the assay was performed at 25° C. For the sensor chips, Series S SA (GE Healthcare) chips onto which CaptureSelect Human Fab-lambda Kinetics Biotin Conjugate (Thermo Fisher Scientific) was immobilized were used. The antibodies of interest were captured onto these chips and each FcγR diluted in the running buffer was allowed to interact with them. Chips were regenerated with 10 mM Glycine-HCl (pH 1.5) and 25 mM NaOH, and assay was performed by repeatedly capturing antibodies. The dissociation constants KD (mol/L) for FcγRs of each antibody were calculated using Biacore T200 Evaluation Software 2.0, using the 1:1 Langmuir binding model for FcγRIa and FcγRIIIa and the steady state affinity model for FcγRIIa. For FcγRIIb, the binding amount of FcγRIIb per unit amount of antibody was calculated by correcting the binding amount of FcγRIIb obtained from the sensorgram obtained by the measurement with the amount of antibody captured onto the chip surface.

[22] = target: T4, human FcγRIa extracellular domain with …; test: SPR Biacore T200, captured Ab, pH 7.4; remark: listed apart in the source
Description: as §1

[23] = target: T5, human FcγRIIa R allotype extracellular …; test: SPR Biacore T200, captured Ab, pH 7.4; remark: listed apart in the source
Description: as §1

[24] = target: T6, human FcγRIIIa V allotype extracellular …; test: SPR Biacore T200, captured Ab, pH 7.4; remark: listed apart in the source
Description: as §1

[25] = target: T7, human FcγRIIIa F allotype extracellular …; test: SPR Biacore T200, captured Ab, pH 7.4; remark: listed apart in the source
Description: as §1

human FcRn [26] = target: T2, human FcRn; test: SPR Biacore T200, captured Ab, pH 6.0, steady state; remark: listed apart in the source
Description: The interaction between the generated antibodies and human FcRn was analyzed by the following method using Biacore T200. 50 mM Na-Phosphate, 150 mM NaCl, 0.05% Tween20 (pH 6.0) was used as the running buffer, and the assay was performed at 25° C. For the sensor chip, Series S SA (GE Healthcare) chips onto which CaptureSelect Human Fab-lambda Kinetics Biotin Conjugate (Thermo Fisher Scientific) was immobilized were used. The antibodies of interest were captured onto these chips and FcRn diluted in the running buffer was allowed to interact with them. Chips were regenerated with 10 mM Glycine-HCl (pH 1.5) and 25 mM NaOH, and assay was performed by repeatedly capturing antibodies. The dissociation constant for FcRn of each antibody was calculated using the steady state model, using Biacore T200 Evaluation Software 2.0.

[27] = target: T1, human FcγRIIb extracellular domain with …; test: SPR; FcγRIIb bound amount per unit captured Ab; remark: listed apart in the source
Description: as §1

[28] = target: T1, human FcγRIIb extracellular domain with …; test: SPR; binding amount divided by that of 04H1656-G1m/04L1610-lam1

T4 sequence (P12314 16-292): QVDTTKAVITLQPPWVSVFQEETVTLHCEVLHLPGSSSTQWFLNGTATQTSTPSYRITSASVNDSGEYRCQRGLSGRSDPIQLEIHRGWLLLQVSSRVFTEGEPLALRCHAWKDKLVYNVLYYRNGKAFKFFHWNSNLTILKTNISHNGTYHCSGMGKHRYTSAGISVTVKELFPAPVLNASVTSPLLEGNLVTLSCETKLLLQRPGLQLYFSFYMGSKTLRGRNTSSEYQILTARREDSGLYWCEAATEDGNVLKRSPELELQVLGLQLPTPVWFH
T6 sequence (P08637 17-208 F176V): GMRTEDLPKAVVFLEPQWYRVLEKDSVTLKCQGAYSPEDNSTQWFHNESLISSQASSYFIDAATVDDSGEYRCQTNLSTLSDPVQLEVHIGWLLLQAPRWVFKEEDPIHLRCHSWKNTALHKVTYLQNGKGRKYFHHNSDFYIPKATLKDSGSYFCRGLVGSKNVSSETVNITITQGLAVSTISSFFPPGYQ
T7 sequence (P08637 17-208): as the sequence (P08637 17-208 F176V) above, with V160F counted along it

- Relative binding amount [1]: 1.3
- Kd (human FcRn [2]): 330 nM
- Kd [3]: 53 nM
- Kd [4]: 0.15 nM
- Kd [5]: 160 nM
- Kd [6]: 3.9 nM
- Kd [7]: 17 nM
- Relative value to KD between G1m and hFcRn (human FcRn [8]): 3
- Relative value to KD between G1m and hFcγRs [9]: 20
- Relative value to KD between G1m and hFcγRs [10]: 0.5
- Relative value to KD between G1m and hFcγRs [11]: 9.7
- Relative value to KD between G1m and hFcγRs [12]: 225
- Relative value to KD between G1m and hFcγRs [13]: 41.3
- Binding amount [14]: 0.015
B1: 04H1389-Km473/04L1305-k0MT//04H1389-Hm451/04L1305-k0MT (antibody)
heavy 1: EVQLVESGGGLVKPGGSLRLSCAASGFTFSSKTMNWVRQAPGKGLEWVSSISTQSHYIYYAESVKGRFTISRDNAKNSLYLQMNSLRAEDTAVYYCARYGKREDMLWVFDYWGQGTLVTVSSASTKGPSVFPLAPSSKSTSGGTAALGCLVKDYFPEPVTVSWNSGALTSGVHTFPAVLQSSGLYSLSSVVTVPSSSLGTQTYICNVNHKPSNTKVDKRVEPKSCDKTHTCPPCPAPEFQWGPMVFLFPPKPKDVLMISRTPEVTCVVVDVSDEEPEVKFNWYVDGVEVHNAKTKPREEQYNATYRVVSVLPVLHQDWLNGKEYKCKVSNDALPAPIEKTISKAKGQPREPQVCTLPPSREEMTKNQVSLWCLVKGFYPSDIAVEWESNGQPENNYKTTPPVLDSDGSFFLYSKLTVDKSRWQQGNVFSCSVMHEALHAHTTRKELSLSP
heavy 2: EVQLVESGGGLVKPGGSLRLSCAASGFTFSSKTMNWVRQAPGKGLEWVSSISTQSHYIYYAESVKGRFTISRDNAKNSLYLQMNSLRAEDTAVYYCARYGKREDMLWVFDYWGQGTLVTVSSASTKGPSVFPLAPSSKSTSGGTAALGCLVKDYFPEPVTVSWNSGALTSGVHTFPAVLQSSGLYSLSSVVTVPSSSLGTQTYICNVNHKPSNTKVDKRVEPKSCDKTHTCPPCPAPELLAGPSVFLFPPKPKDVLMISRTPEVTCVVVDVSHEEPEVKFNWYVDGVEVHNAKTKPREEQYNATYRVVSVLPVLHQDWLNGKEYKCKVSNDALPAPIEETISKAKGQPREPQVYTLPPSRCEMTKNQVSLSCAVKGFYPSDIAVEWESNGQPENNYKTTPPVLDSDGSFFLVSKLTVDKSRWQQGNVFSCSVMHEALHAHTTRKELSLSP
light: DIVMTQSPLSLPVTPGEPASISCDGPSTGVGDYNYVHWYQQKPGQAPRLLIYFTSKKPSGVPDRFSGSGSGTDFTLKISRVEAEDVGVYYCQTYAAPLGPMFGQGTKLEIKRTVAAPSVFIFPPSDEQLKSGTASVVCLLNNFYPREAKVQWKVDNALQSGNSQESVTEQDSKDSTYSLSSTLTLSKADYEKHKVYACEVTHQGLSSPVTKSFNRGEC
notes: Heterodimerized antibody; also called SW1389-ART5+ACT1

- Relative value to KD between G1m and hFcRn (human FcRn [15]): 3.2
- Relative value to KD between G1m and hFcγRs [16]: 14.5
- Relative value to KD between G1m and hFcγRs [17]: 0.6
- Relative value to KD between G1m and hFcγRs [18]: 8.9
- Relative value to KD between G1m and hFcγRs [19]: 190
- Relative value to KD between G1m and hFcγRs [20]: 50.8
- Kd [21]: 92 nM
- Kd [22]: 0.14 nM
- Kd [23]: 180 nM
- Kd [24]: 5.1 nM
- Kd [25]: 20 nM
- Kd (human FcRn [26]): 540 nM
- Binding amount [27]: 0.012
- Relative binding amount [28]: 1.5
B2: 04H1654-KT473/04L1610-lam1//04H1656-HT451/04L1610-lam1 (antibody)
heavy 1: QVQLVESGGGVVQPGGSLRLSCAASGFTFSSKTMNWVRQAPGKGLEWVSSISTQSHYIYYARSVRGRFTISRDNAKNSLYLQMNSLRAEDTAVYYCARYGKREDMLWVFDYWGQGTLVTVSSASTKGPSVFPLAPSSKSTSGGTAALGCLVKDYFPEPVTVSWNSGALTSGVHTFPAVLQSSGLYSLSSVVTVPSSSLGTQTYICNVNHKPSNTKVDKRVEPKSCDKTHTCPPCPAPEFQWGPMVFLFPPKPKDVLMISRTPEVTCVVVDVSDEEPEVKFNWYVDGVEVHNAKTKPREEQYNATYRVVSVLPVLHQDWLNGKEYKCKVSNDALPAPIEKTISKAKGQPREPQVYTLPPSRKEMTKNQVSLTCLVKGFYPSDIAVEWESNGQPENNYKTTPPVLDSDGSFFLYSKLTVDKSRWQQGNVFSCSVMHEALHAHTTRKELSLSP
heavy 2: QVQLVESGGGVVQPGGSLRLSCAASGFTFSSKTMNWVRQAPGKGLEWVSSISTQSHYIYYAESVRGRFTISRDNAKNSLYLQMNSLRAEDTAVYYCARYGAREDMLWVFDYWGQGTLVTVSSASTKGPSVFPLAPSSKSTSGGTAALGCLVKDYFPEPVTVSWNSGALTSGVHTFPAVLQSSGLYSLSSVVTVPSSSLGTQTYICNVNHKPSNTKVDKRVEPKSCDKTHTCPPCPAPELLAGPSVFLFPPKPKDVLMISRTPEVTCVVVDVSHEEPEVKFNWYVDGVEVHNAKTKPREEQYNATYRVVSVLPVLHQDWLNGKEYKCKVSNDALPAPIEETISKAKGQPREPQVYTLPPSREEMTKNQVSLTCLVKGFYPSDIAVEWESNGQPENNYKTTPPVLDSDGSFFLYSKLTVDKSRWQQGNVFSCSVMHEALHAHTTREELSLSP
light: QSALTQPPSASGSPGQSVTISCEGPSTGVGDYNWVHWYQQHPGKAPKLMIYFTSKKPSGVPDRFSGSKSGNTASLTVSGLQAEDEADYYCQTYAAPLGPMFGGGTKLTVLGQPKAAPSVTLFPPSSEELQANKATLVCLISDFYPGAVTVAWKADSSPVKAGVETTTPSKQSNNKYAASSYLSLTPEQWKSHRSYSCQVTHEGSTVEKTVAPTECS
notes: Heterodimerized antibody with N434A/Y436T/Q438R/S440E; also called SW1610-ART5+ACT1
